Experimental data reported in a protein production outcome set (Wang et al. 2014).

Experiment: label from the status in PepcDB records
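Further: failed if final PepcDB status was selected cloned or expressed and not failed if soluble or beyond.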

Row | Sequence | protein production
1 | MEREEIIERFLKFFREYAEEGEEPLYMGKIKDLLTITPKRSIVINWMHLNSYDPELAEEVIENPEECILAAEDAIQIILKEDFLREDVPKIHARFHNLPKTLMVKEVGAEHINKLIQVEGVVTRVTEIKPFVSVAVFVCKDCGHEMVVPQKPYEGFVAVKKCEQCGSKNVQLDVEKSKFVNFQMFRIQDRPESLRGGQMPRFIDGILLDDIVDTAMPGDRVIVVGILRVIQEKREKVPTFKKVIEVNHIEPISKELEELEISPEDEQKIRELAKRKDIVSAIVDSIAPAIYGYKEVKKGIALALFGGVSRTLPDGTRLRGDIHVLLVGDPGVAKCVDYDTEVLLGDGRKRKIGEIVEEAIKKAEKEGKLGRVDDGFYAPINLELYALDVRTLKVRKVKADIAWKRTTPEKMLRIRTKRGREIRVTPTHPFFTLEEGRIKTKKAYELKVGEKIATPREEAPEAEIFWDEVVEIEEYKPNNSWVYDLQVPEHHNFIANGIFVHNSQLLRYVANLAPRAIYTSGKSSSAAGLCVAPDTLINTDNGRVEIGKFVEEWMKEVGEISEEGISYAPCFRKVETFKDGKIVESPIRRVWKLRAPKKLVRIKTENGRSIALTRETKLLTINDGELSWVEAGEVKVGTYVGTVKSEKDVIPGAGKTIRDVSKLYNMEMEVKDYLTREEVRKAIEKLEEIMNPMNIKIPGVQESYEELLRKLETTNDERVRNETLILLSDVSDAHELAKEKIEKIKEIVNSEVHWEKVTEVGEVDGVEYVYDLTVEGSHNFVANGFIVHNTAAVVRDEFTGGWVLEAGALVLADGGYALIDELDKMSDRDRSVIHEALEQQTISLSKAGITATLNARTTVIAAANPKHGRFNRMKRVSEQIDLPPTLLSRFDLIFVLMDEPDEKVDSEIARHILKVRRGESEVVTPKIPHELLRKYIAYARKNIHPVISEEAMEEIEKYYVKMRRSAKKSSGDEIKPIPITARQLEALIRLSEAHARMRLSPIVTREDAREAIKLMEYTLKQIAVDEAGQLDVTILEVGQSARKLSKVERILDIVEKLERTSEKGAKIDDILEEAAKFGIEKSEAREILEKLLEKGQIYMPENGYYKTV | failed
2 | MSIEYKSEAAAVRRFPGSIVVMGVSGSGKSSVGEAIAEACGYPFIEGDALHPPENIRKMSEGIPLTDDDRWPWLAAIGERLASREPVVVSCSALKRSYRDKLRESAPGGLAFVFLHGSESVLAERMHHRTGHFMPSSLLQTQLETLEDPRGEVRTVAVDVAQPLAEIVREALAGLARL | not failed
3 | MKLVVCSESDTAGQNIKDNLLTFADFEEKDVGEFKLYLSDEFYIAETKERLIYADHIDEKLAKYIDFEEILFASRHSSKDGRKIFTVHVSGNVGTADFGGKPYSLAKPSPQTMKNYVLALRERLDRKPEFEFTMEVTHHGPSEISKPSAFYEIGSTEEEWKDREAAEVVAEAMLDAIRAEKMDWNVAVGVGGTHYAPRQTEIMLTTTFTFGHNFAKYTFEHLTAEFLVKAVKLSEAEYIIIDEKSVNSAVKKIVNEAAEVAGVEVLKSKKVKKDFRLV | not failed
4 | MVKRANTFAMRPLTADDEQVLRDLLDASAALWNEINYQRLMRYNDKDGFEDEDVWDADTGALEGKYKAVLGASTAQTVRRANTEAWRSFFRLKKQFHDESNTSVTEHPEPPGFRGNKDDGRVLKGVVRKDAYSVEWGDRSRLEMVVGEQLRDRHNSPKSRLRLEIVGDPNWSDYEDQGRLELWYDETDCTFRASQPVTVSDDARATPLANEKAALDIGANNLVACTTTTGQQYLYEGRELFQRFRETTREIARLQSKLPEGRYSSKRIRRLYRKRTRRRDHAQETLCRDLLEQLYGEGVDTVYIGGLTDVLETHWSAETNAKTHNFWAFKQFTERLAWTADEYGISVEVRSEAWTSQECPQCGSTDRTTRQQDTLTCPCGFEGHADVTASETFLERHTEKAVRPMARPVRFEWDDHEWSESPRSPARESPKEQRTDPSTVPRDGNVVSGDSLEHHHHHH | failed
5 | MSVEPTSVDPSPDKSAPANASGRADASARPSTGESARPSGGETPEVLRPHAEVTFAAELAALAAQDDRPRPVRWRLSPWAVATYLLGGTLPDGTVITPKYVGPRRIVEVAVTTLATDRALLLLGVPGTAKTWVSEHLAAAVSGDSTLLVQGTAGTPEEAIRYGWNYAQLLAHGPSRDALVPSPVMRAMADGMTARVEELTRVPADVQDTLITILSEKTLPIPELGQEVQAVRGFNLIATANDRDRGVNELSSALRRRFNTVVLPLPESADAEVDIVSRRVDQIGRSLDLPAVPDGVDEIRRVVTVFRELRDGVTTDGRTKLKSPSGTLSTAEAISVVTNGLALAAHFGDGVLRASDVAAGILGAVVRDPAADRVIWQEYLEAVVRERDGWMDFYRACREVSALEHHHHHH | not failed
6 | MSKIFNEELAVIEAAAIAYLTAFNRADIPAVIATYTDDGVLMGPGRPAAVGKDELAEVYLSVFETVGFDMAYEIKEVVQTSADWAFVRSATEGTETNKATGVVTPAAYQELFLLRKSATGSWQTARYCTSKISP | not failed
7 | MRDLLNDLSEGLSHPDPILRAQIQMQKPLPKRFYKDVTVADVEEGGFTILLDGKPLRTPAKKPLVAPSRALADLLRDEWDAQKEVVNPVVMPVSRHVNTAIDGIASDTQAVFEDILRFSSSDLLCYRAGDPEALVARQTDYWDPVLDWATNVLGARFILVEGVMHRDQPREAIAAFAVTLKKYDTPIALAALHTMTSLTGSAILALALAEGELTLEEAWALAHLDEDWTAEQWGEDEEALERRAVRLIDMRAALNVLESLKSAS | not failed
8 | VILSATRPFVCSRAPLGLSESAFMPLNGRTKMITKMPFRLVSLSCLELHRASSFWDIGFCTGSVSIEAKLNFPHLHITAFEIRPEGAELMPVNSRRFGAPGIAYRIGDFMEEDISSLAPPDAVFIGGHGGRLVEMIAKVHSVMTKGGLLVFNSVSEESRHLFLTGIEACGMELLSSIRLTADGNNPIDILQARKKE | failed
9 | MKVIETKYNGKLEVAEDRLIAFDQGIPAFEDEKEFVLLPFAAGTPYYTLQSTKTVDLAFIIVNPFSFFPEYRVKLPEATIVQLNITNENDVAIFSLLTVKEPFSETTVNLQAPIVINANKQMGKQLVLGDTAYDRKQPLFQKELVLAKEAK | not failed
10 | MEHSSGTKLLLTLSLFFCLISGAEAADSHALDSGDVNLSELKAFDLLCKCETWGIVNTVSLSSTGNYLVAGGFDRNVSLFDSRGTQLWNYKTEDIVYTVSISSDGSRIVAGSNDKKVYFFNREGDLLWSHKTGGNINSVAVSSNGLYVAAGGEDGKVYFMNSAGKLLWSFDSEAAVRSIAISRDGTYVAVGNANNYVYLFDSEGKTIWNRKTGSLINCVSMTPYAYYVAAGGSNYNVYLFDRKGEFSWMNNPGYWVSSVSLTTNGAYLAAGSFDDMIYLFNRTGGKIWDYKAKDDVYAVEISADSSFIAAGSWDDTLYVLNMDGEELWNYNCGGNINSLDVSRDSTTIAVGSDAGAVYLFERNPTAFALLLGDESFLPEETTKETDTSLAEKTIKPIEEETAVTGGVENKVEDAPATSSSVSGNPKTGENPGSEELPTEESSLKLLEKFDSIKFPAALLLGALAGTVFFLKRRLVKYHEKNDENLEDLEEKDIRE | failed
11 | MGHHHHHHSHGHAAVIGWKDLAYAGVIDSGGVCENIIAIPNPGTEPLNVAAVLCEGLDVVVYKGPEISLSPTRARPLLGKLRQGTAALVMVGTKVSSPALSVDAEITDYVGIGAGSGRIRGVEMQVRAVSKTHGVRSGKVLISRP | failed
12 | MKRCRRRTQAGIRINLCVQGREGLSSPTPIGPIVTSTQPDSRASSLTDDALQWTRLEVAFTAGIVGCLLFATWQLGDLLARDWLAGWVGESELREDLVYYGVAFTAALAALGGTTRSLAHAGRFRRTVGRSLLWYGALLLISASGMGAIEYLPEVAAGLFGAGVLIAAVYVLQQRYFTRERIRRRRLRNDNCPQCGSDLRPEAHHCSQCGRRMGEDCPECGGYLGRSDRYCADCGRERAEGAP | failed
13 | MSGQADTATTAEARTPAHAAHHLVEGVARVLTKPRFRGWIHVYSAGTAVLAGASLVAVSWAVGSAKAGLTTLAYTAATITMFTVSATYHRVNWKSATARNWMKRADHSMIFVFIAGSYTPFALLALPAHDGRVVLSIVWGGAIAGILLKMCWPAAPRSVGVPLYLLLGWVAVWYTATILHNAGVTALVLLFVGGALYSIGGILYAVRWPDPWPTTFGYHEFFHACTAVAAICHYIAMWFVVF | failed
14 | MSGSSHYPVANWNLDGIVSGLRGARQEWRGPRGRLREESESGVREFPSQESLRDIMRQLFGALFPMRLGPIDLREEVEDFYVGHTIGAALDALLHQVCLELQHLGRDDPQPYGQVLERAVDIVRRFGAELPAVRKALDLDVTAAYQGDPAARSVDEVLLCYPGVTAMIHHRLANVLYRLGAPMLARIVAEIAHSDTGIDIHPGATIGRSFFIDHGTGVVIGETAIIGERVRLYQMVTLGAKRFPPGENGELKKGLPRHPIIEDDVVIYAGATILGRITIGQGSTIGGNVWLTHSVPPNSTVTQAGAINDMPDCGLGGLEHHHHHH | failed
15 | MSKQLLALNIDGALLRSNGKIHQATKDAIEYVKKKGIYVTLVTNRHFRSAQKIAKSLKLDAKLITHSGAYIAEKIDAPFFEKRISDDHTFNIVQVLESYQCNIRLLHEKYSIGNKKKVNSNLLGKALIHPSDPIFYPVQFVESLSDLLMDEPVSAPVIEVYTEHDIQHDITETITKAFPAVDVIRVNDEKLNIVPKGVSKEAGLALVASELGLSMDDVVAIGHQYDDLPMIELAGLGVAMGNAVPEIKRKADWVTRSNDEQGVAYMMKEYFRMQQRKGFLDKFHMKRV | failed
16 | MVVSTDQAHSLGDVLGIAVPPTGQGDPVRVLAYDPEAGGGFLDALALDTLALLEGRWLHVVETLDRRFPGSELSSIAPEELCALPGIQEVLGLHAVGELAAARRWDRIVVDCASTADALRMLTLPATFGLYVERAWPRHRRLSIGADDGRSAVLAELLERIRASVERLSTLLTDGALVSAHLVLTPERVVAAEAVRTLGSLALMGVRVEELLVNQLLVQDENYEYRSLPDHPAFHWYAERIGEQRAVLDDLDATIGDVALVLVPHLAGEPIGPKALGGLLDSARRRQGSAPPGPLQPIVDLESGSGLASIYRLRLALPQLDPGTLTLGRADDDLIVSAGGMRRRVRLASVLRRCTVLDAHLRGGELTVRFRPNPEVWPT | failed
17 | MPPPAAAAGLAGRPGRGAGSRLRPAVAAAGRRAHMIRCRHGGPRLQDIRNTVGNVPLEWYDDFPHVGYDLDGRRIYKPLRTRDELDQFLDKMDDPDYWRTVQDPMTGRDLRLTDEQVALVRRLQSGQFGDVGFNPYEPAVDFFSGDVMIHPVTNRPADKRSFIPSLVEKEKVSRMVHAIKMGWIQPRRPRDPTPSFYDLWAQEDPNAVLGRHKMHVPAPKLALPGHAESYNPPPEYLLSEEERLAWEQQEPGERKLSFLPRKFPSLRAVPAYGRFIQERFERCLDLYLCPRQRKMRVNVDPEDLIPKLPRPRDLQPFPTCQALVYRGHSDLVRCLSVSPGGQWLVSGSDDGSLRLWEVATARCVRTVPVGGVVKSVAWNPSPAVCLVAAAVEDSVLLLNPALGDRLVAGSTDQLLSAFVPPEEPPLQPARWLEASEEERQVGLRLRICHGKPVTQVTWHGRGDYLAVVLATQGHTQVLIHQLSRRRSQSPFRRSHGQVQRVAFHPARPFLLVASQRSVRLYHLLRQELTKKLMPNCKWVSSLAVHPAGDNVICGSYDSKLVWFDLDLSTKPYRMLRHHKKALRAVAFHPRYPLFASGSDDGSVIVCHGMVYNDLLQNPLLVPVKVLKGHVLTRDLGVLDVIFHPTQPWVFSSGADGTVRLFT | failed
18 | AGVMTGAKFTQIQFGMTRQQVLDIAGAENCETGGSFGDSIHCRGHAAGDYYAYATFGFTSAAADAKVDSKSQEKLLAPSAPTLTLAKFNQVTVGMTRAQVLATVGQGSCTTWSEYYPAYPSTAGVTLSLSCFDVDGYSSTGAYRGSAHLWFTDGVLQGKRQWDLV | not failed
19 | MKPTLFLLAAGMGSRYGGLKQLDGLGPNGETIMDYSIYDAINAGFGKLVFVIRKDFEQDFREKIISKYEGHIPCELVFQSIDDLPEGFTCPADRTKPWGTNHAVMMGADVISEPFAVINCDDFYGRDSFQVMGKFLSALPENSKNVYSMVGFRVGNTLSESGTVSRGICSTDANNLLTSVVERTKIQRLDGEVKYIDDNGEWTATPDTTPVSMNFWGFTPDYFAYSEEFFKTFLSDPKNMENLKSEFFIPLMVDKLINDGTATVEVLDTTSKWFGVTYPEDRQSVVDKIQALVDAGEYPAKLFLEHHHHHH | failed
